Measurements reported in publication PMC9907207 (Nature Communications, 2023).

Columns and labels:
Assay in all cases: BLI
Settings in all cases: both partners purified
[1] = molecular target: SARS-CoV-1 RBD (SARS-CoV (SARS-CoV-1), isolate not …, UniProt P59594)
[2] = molecular target: T1, SARS-CoV-2 RBD (residues 319-541), ancestral strain (SARS-CoV-2, UniProt P0DTC2)
T1 construct: source: Expi293, purified (Talon resin)

[3] = molecular target: bat RaTG12-CoV RBD (Bat coronavirus RaTG13 (printed as …, UniProt A0ABF7PLN6))

Measured: binding result

B1: GAR03, human IgG1 monoclonal antibody (antibody, V domains shown)
VH: QVQLVQSGAEVKKPGASVKVSCKASGYTFSSYDINWVRQAPGQGLEWMGWMSPNSGNTGYAQKFQGRVTMTRSTSMSTAYMELSSLRSEDTAVYFCARMSSSLTNYLDYWGQGTLVTVSS
VL: SYVLTQPPSVAVAPGQTARIRCGENDIGSKNVHWYQQKSGQAPVLVVYDDSDRPSGIPERFSGSNSGNTATLTISRVEAGDEADYYCQVWDSTGDHPDVVFGGGTKLTVL
notes: source: ExpiCHO, purified (Protein G resin)
binds: all assays above
